Laboratory results as given in PMC4114688.
Like-named read-outs stand apart in the source and are kept apart here.

Assays:
Test in all cases: EMSA
RBPMS isoform A [1] = molecular target: T1, RBPMS isoform A (Homo sapiens, UniProt Q93062 1-196)
RBPMS2 [2] = molecular target: T2, RBPMS2 (UniProt Q6ZRY4 1-209)
RBPMS 1-100 = RBPMS 1-100 (Homo sapiens, UniProt Q93062 1-100)
RBPMS2 [3] = molecular target: T2, RBPMS2; remark: listed apart in the source
RBPMS 1-144 = RBPMS 1-144 (Homo sapiens, UniProt Q93062 1-144)
RBPMS isoform A [4] = molecular target: T1, RBPMS isoform A; remark: listed apart in the source
RBPMS isoform A [5] = molecular target: T1, RBPMS isoform A; remark: listed apart in the source

T2 sequence (Q6ZRY4 whole entry): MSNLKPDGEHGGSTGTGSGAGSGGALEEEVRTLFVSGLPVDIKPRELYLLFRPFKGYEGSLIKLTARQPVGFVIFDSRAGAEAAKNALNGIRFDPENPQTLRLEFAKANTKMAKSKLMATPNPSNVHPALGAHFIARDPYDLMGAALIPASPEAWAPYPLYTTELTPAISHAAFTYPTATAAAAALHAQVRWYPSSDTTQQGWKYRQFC

| Binder | binding result (RBPMS isoform A [1]) | binding result (RBPMS2 [3]) | further results |
| --- | --- | --- | --- |
| CCCUCACUCACCAAACACGUG (ssRNA) [UBE2V1 or SRM 21-nt wt (b)] | binds | – | – |
| AGGCACUUUCAACUUCACUCC (ssRNA) [ETF1 21-nt wt] | binds | – | binding result (RBPMS2 [2]): binds |
| ACACACACACACACACAC (ssRNA) [(AC)9] | – | binds | binding result (RBPMS 1-100): no binding; binding result (RBPMS 1-144): binds; binding result (RBPMS isoform A [4]): binds |
| CACCACCACCACCACCAC (ssRNA) [(CAC)6] | binds | binds | – |
| CAUCAUCAUCAUCAUCAU (ssRNA) [(CAU)6] | no binding | no binding | – |
| CUCUCUCUCUCUCUCUCU (ssRNA) [(CU)9] | no binding | no binding | – |
| AGAGAGAGAGAGAGAGAG (ssRNA) [(AG)9] | no binding | – | – |
| GGCGGCGGCGGCGGCGGC (ssRNA) [(GGC)6] | no binding | – | – |
| GCCGCCGCCGCCGCCGCC (ssRNA) [(GCC)6] | no binding | – | – |
| AAAAAAAAAAAAAAAAAA (ssRNA) [A18] | no binding | – | – |
| UUUUUUUUUUUUUUUUUU (ssRNA) [U18] | no binding | – | – |
| ACACACACACACAC (ssRNA) [(AC)7] | – | – | binding result (RBPMS isoform A [5]): binds |
| UACUCACUCACUCUCCACGAG (ssRNA) [UBE2V1 or SRM 21-nt wt (a)] | binds | – | – |
